For 41 sequences, protein stability index results are on record in the supplement of paper PMC10567573.

The nature of this data set: protein stability index of a GFP-peptide fusion (GPS, HEK-293T) (PSI 1-6); higher = more stable.
Setting [1] is: treatment: DMSO, c terminus: a fixed tail appended.
Setting [2] is: treatment: MLN4924 1 uM, 8 h, c terminus: a fixed tail appended.

± gives the standard deviation.
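Also: 24-mer peptide tiles fused after GFP, lentivirally expressed, FACS-sorted into six equal bins by GFP/DsRed ratio, decoded by Illumina sequencing, PSI is the read-weighted mean bin number.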

For the sequence VPAPQPPVTKPLFPSAGQAQAAVQ [ZNF207], the protein stability index by setting is: under setting [1], 4.39 ± 0.41; under setting [2], 4.59 ± 0.18.

Take VPSLNAALMHTLQRHRDILQVIYW [GOSR1]: the protein stability index came out at 2.23 ± 0.55 under setting [1] and 2.4 ± 0.41 under setting [2].

For the sequence VQEQQKQLQDQDQKLLEQTQIIGE [FBXO28], the protein stability index is, setting by setting: under setting [1], 5.43 ± 0.28; under setting [2], 5.36 ± 0.09.

As to VQPMDRLPYQHFSAHFTSGPLVPR [TBX5], the protein stability index is, setting by setting: under setting [1], 2.88 ± 0.27; under setting [2], 2.88 ± 0.33.

With VRDSDDNSPLHIAALNNHPDIMNL [FEM1C], the protein stability index worked out at 4.26 ± 0.24 under setting [1] and 4.42 ± 0.2 under setting [2].

For VRHEGTRTLWSGLPATLVMTVPAT [SLC25A39], the protein stability index by setting is: under setting [1], 2.33 ± 0.18; under setting [2], 2.27 ± 0.13.

Take VRHLEEENRGIVVLGINRAYGKNS [AUH]: the protein stability index was determined as 3.15 ± 0.36 under setting [1] and 3.31 ± 0.22 under setting [2].

Consider VRNQQSLAVSNMGARSKGQCPEPP [PTPN9], for which the protein stability index stood at 4.3 ± 0.11 under setting [1] and 4.21 ± 0.39 under setting [2].

In the case of VSAQRERPRRRDGPEHATRLNGTA [DVL3], the protein stability index stood at 4.7 ± 0.17 under setting [1] and 4.81 ± 0.21 under setting [2].

For the sequence VSDITDLELLDKIERSKIVSTMRC [PPEF2], the protein stability index reads like this: under setting [1], 3.69 ± 0.27; under setting [2], 3.52 ± 0.23.

Regarding VSEWASKAKANGITMYAVGVGKAI [MATN2], the protein stability index under setting [1] worked out at 2.33 ± 0.3 and the protein stability index under setting [2] was determined as 2.36 ± 0.2.

For the sequence VSGSHFVGVDGVRAFLQTYSHEVS [PCDHGA10], the protein stability index by setting is: under setting [1], 2.49 ± 0.27; under setting [2], 2.24 ± 0.24.

Take VSNTRLIAAATSVLKTRFSYAFPK [CCNC]: the protein stability index is, setting by setting: under setting [1], 2.24 ± 0.44; under setting [2], 1.96 ± 0.34.

Regarding VSPGGVKLEISTKEVPVVHTETKT [EPB41L3], the protein stability index under setting [1] amounted to 4.88 ± 0.29 and the protein stability index under setting [2] was determined as 5 ± 0.3.

For VTGHTNIVDFLTHHAQTSKTERIN [FEM1C], the protein stability index by setting is: under setting [1], 3.45 ± 0.11; under setting [2], 3.54 ± 0.19.

Take VTLELSQLSMLPHLADLVSYSIQK [VDR]: the protein stability index under setting [1] amounted to 2.86 ± 0.52 and the protein stability index under setting [2] was found to be 2.91 ± 0.26.

VVLCFSIANPNSLHHVKTMWYPEI [RHOBTB2] displayed a protein stability index under setting [1] of 3.23 ± 0.42 and a protein stability index under setting [2] of 3.16 ± 0.21.

With VYKSLLLLAYLIRNGSERVVTSAR [CLINT1], the protein stability index is 2.57 ± 0.51 under setting [1] and 2.59 ± 0.39 under setting [2].

Take WKALSEFALQSDLDQPAFQQLVSF [ISL2]: the protein stability index by setting is: under setting [1], 2.21 ± 0.14; under setting [2], 2.31 ± 0.37.

Sequence WKEGRPRVEESGSKKEGKRQGPKE [PBXIP1] displayed a protein stability index under setting [1] of 5.28 ± 0.46 and a protein stability index under setting [2] of 5.24 ± 0.12.

WLPQQNAAYFLLSTNDKTVKLWKV [PPP2R2B]: the protein stability index by setting is: under setting [1], 2.53 ± 0.63; under setting [2], 2.6 ± 0.8.

For WSRLEEFDVFSPKQDLVPGSPDDS [DLC1], the protein stability index was found to be 4.45 ± 0.27 under setting [1] and 4.87 ± 0.38 under setting [2].

On to WTNRLCHQEMGSKKTVTQEDRGW [SPAG8], for which the protein stability index worked out at 3.08 ± 0.64 (treatment: DMSO, c terminus: native) and 2.79 ± 0.41 (treatment: MLN4924 1 uM, 8 h, c terminus: native).

Sequence WTPLHLACYFGHRQVVQDLLKAGA [OSBPL1A] yielded a protein stability index under setting [1] of 2.61 ± 0.6 and a protein stability index under setting [2] of 2.64 ± 0.48.

Turning to YAGNLHESGVHGALLALDENFDHN [PPFIA4], the protein stability index turned out to be 3.26 ± 0.51 under setting [1] and 3.7 ± 0.73 under setting [2].

On to YECNHCGKGFRHSSSLAQHQRKHA [ZNF8], for which the protein stability index was determined as 5.08 ± 0.32 under setting [1] and 5.12 ± 0.28 under setting [2].

On to YEMTDLTNNKVYAAKIIPHSRVAK [PLK2], for which the protein stability index runs as follows: under setting [1], 3.78 ± 0.092; under setting [2], 4.05 ± 0.28.

For the sequence YESSADIAGDEGTQIPADEDTQTD [TAF7L], the protein stability index reads like this: under setting [1], 5.61 ± 0.24; under setting [2], 5.53 ± 0.24.

For the sequence YEWARDHRAHHKFSETHADPHNSR [SCD], the protein stability index is 3.96 ± 0.28 under setting [1] and 4.12 ± 0.18 under setting [2].

Consider YFALRKILKQLIADVTLDPETAHP [TRIM39], for which the protein stability index amounted to 4.09 ± 0.2 under setting [1] and 4.34 ± 0.21 under setting [2].

Take YKGELFDKTPVLLTDYPVDLDEIA [MYORG]: the protein stability index under setting [1] was 3.73 ± 0.28 and the protein stability index under setting [2] turned out to be 3.75 ± 0.16.

For the sequence YMRYSRKVWDQVKASNPDLKLWEI [SMARCE1], the protein stability index reads like this: under setting [1], 2.18 ± 0.73; under setting [2], 1.95 ± 0.066.

With YPVTIGGKIVGSLCAIAGVLTIAL [KCNA1], the protein stability index is, setting by setting: under setting [1], 2.35 ± 0.21; under setting [2], 2.23 ± 0.16.

Take YSCQSKEILRYMKEFTLLLSAANV [P2RY14]: the protein stability index by setting is: under setting [1], 2.4 ± 0.45; under setting [2], 2.26 ± 0.31.

YSLMKRQMMSATAQNREPESVEQL [SNX8] yielded a protein stability index under setting [1] of 4.37 ± 0.38 and a protein stability index under setting [2] of 4.48 ± 0.19.

As to YSLVTHIPAGARDIQIVERKKSAD [ADAMTSL2], the protein stability index is, setting by setting: under setting [1], 4.37 ± 0.22; under setting [2], 4.67 ± 0.41.

Consider YSSQLSQVQSLITNVESQLAEIRS [KRT33B], for which the protein stability index by setting is: under setting [1], 3.49 ± 0.1; under setting [2], 3.66 ± 0.2.

YTDYVATRWYRAPELLVGDTQYGS [CDKL4] displayed a protein stability index under setting [1] of 2.56 ± 0.7 and a protein stability index under setting [2] of 2.38 ± 0.34.

For YTGRAPNLDKMADNLLAAADKYAL [SPOPL], the protein stability index reads like this: under setting [1], 2.78 ± 0.42; under setting [2], 3.06 ± 0.5.

YVLKYMESNAAQYSPEALASIQNH [EFHC1]: the protein stability index by setting is: under setting [1], 2.31 ± 0.14; under setting [2], 2.35 ± 0.24.

Consider YYTMDPTQHVNNWMKHNVADSQIT [PTPRD], for which the protein stability index reads like this: under setting [1], 2.95 ± 0.31; under setting [2], 2.93 ± 0.5.
